Changes are numbered by the printed parent chain.
T1: GFP-9S library array, motif 4 ND N98L;D124H (synthetic construct, N98L;D124H)
T1 chain: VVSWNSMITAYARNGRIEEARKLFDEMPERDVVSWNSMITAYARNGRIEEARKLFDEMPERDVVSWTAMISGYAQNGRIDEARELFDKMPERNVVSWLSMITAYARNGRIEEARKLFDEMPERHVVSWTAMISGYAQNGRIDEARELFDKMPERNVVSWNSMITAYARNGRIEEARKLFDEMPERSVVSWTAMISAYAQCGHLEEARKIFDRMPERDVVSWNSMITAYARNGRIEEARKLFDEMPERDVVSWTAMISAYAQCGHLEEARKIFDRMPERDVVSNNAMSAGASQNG

T2: GFP-9S library array, motif 4 ND N98S (synthetic construct, N98S)
T2 chain: T1 chain with L98S, H124D

T3: GFP-9S library array, motif 4 ND N98P;D124E (synthetic construct, N98P;D124E)
T3 chain: T1 chain with L98P, H124E

T4: GFP-9S library array, motif 4 ND N98Q;D124K (synthetic construct, N98Q;D124K)
T4 chain: T1 chain with L98Q, H124K

T5: GFP-9S library array, motif 4 ND N98L;D124C (synthetic construct, N98L;D124C)
T5 chain: T1 chain with H124C

B1: IR-rpoA-A (ssRNA)
RNA: AUUAAACGUGA
B2: Cy5-rpoA (ssRNA)
RNA: AUUACACGUGA
B3: Cy5-rpoA-G (ssRNA)
RNA: AUUAGACGUGA
B4: IR-rpoA-U (ssRNA)
RNA: AUUAUACGUGA

Assays:
Assay in all cases: high-throughput RNA pulldown from lysate on Ni-NTA beads; HRP: 50 mM Tris pH 8, 150 mM NaCl, 1 mM beta-mercaptoethanol, 50 ug/ml BSA, 3 ug/ml yeast RNA, 0.5% heparin; ITC and FP: Tris pH 8, 200 mM KCl, 5% glycerol; MST: 50 mM Tris pH 8, 200 mM NaCl, 1 mM DTT, BSA, heparin, 0.05% Tween 20
Settings in all cases: tags: N-terminal His-eGFP
[1] = target: T1, GFP-9S library array, motif 4 ND …
[2] = target: T2, GFP-9S library array, motif 4 ND N98S
[3] = target: T3, GFP-9S library array, motif 4 ND …
[4] = target: T4, GFP-9S library array, motif 4 ND …
[5] = target: T5, GFP-9S library array, motif 4 ND …

Row | Binder | Kd ([1]; label: 5' IRDye 800CW) | Kd ([2]; label: 5' IRDye 800CW) | Kd ([3]; label: 5' IRDye 800CW) | Kd ([4]; label: 5' IRDye 800CW) | Kd ([5]; label: 5' IRDye 800CW) | Kd ([1]; label: 5' Cy5) | Kd ([2]; label: 5' Cy5) | Kd ([3]; label: 5' Cy5) | Kd ([4]; label: 5' Cy5) | Kd ([5]; label: 5' Cy5)
1 | B1 | 399 nM | 574 nM | 386 nM | 257 nM | 98.7 nM |  |  |  |  | 
2 | B2 |  |  |  |  |  | 179 nM | 413 nM | 204 nM | 91.3 nM | 89 nM
3 | B3 |  |  |  |  |  | 196 nM | 17.2 nM | 220 nM | 109 nM | 70.4 nM
4 | B4 | 125 nM | 262 nM | 309 nM | 159 nM | 60.2 nM |  |  |  |  | 

Reference: publication PMC8809517, “Cofactor-independent RNA editing by a synthetic S-type PPR protein”
